In publication PMC10657180:

Columns and labels:
[1] = molecular target: neddylated CUL1-RBX1 with the FBXW7-SKP1 substrate receptor (human) (UniProt Q13616)
[2] = molecular target: neddylated CUL2-RBX1 in complex with the KLHDC2-ELONGIN B/C substrate receptor (human) (UniProt Q13617)
[3] = molecular target: neddylated CUL2-RBX1 in complex with the VHL-ELONGIN B/C substrate receptor (human) (UniProt Q13617)

Sequence of ARIH1 (Q9Y4X5 whole entry): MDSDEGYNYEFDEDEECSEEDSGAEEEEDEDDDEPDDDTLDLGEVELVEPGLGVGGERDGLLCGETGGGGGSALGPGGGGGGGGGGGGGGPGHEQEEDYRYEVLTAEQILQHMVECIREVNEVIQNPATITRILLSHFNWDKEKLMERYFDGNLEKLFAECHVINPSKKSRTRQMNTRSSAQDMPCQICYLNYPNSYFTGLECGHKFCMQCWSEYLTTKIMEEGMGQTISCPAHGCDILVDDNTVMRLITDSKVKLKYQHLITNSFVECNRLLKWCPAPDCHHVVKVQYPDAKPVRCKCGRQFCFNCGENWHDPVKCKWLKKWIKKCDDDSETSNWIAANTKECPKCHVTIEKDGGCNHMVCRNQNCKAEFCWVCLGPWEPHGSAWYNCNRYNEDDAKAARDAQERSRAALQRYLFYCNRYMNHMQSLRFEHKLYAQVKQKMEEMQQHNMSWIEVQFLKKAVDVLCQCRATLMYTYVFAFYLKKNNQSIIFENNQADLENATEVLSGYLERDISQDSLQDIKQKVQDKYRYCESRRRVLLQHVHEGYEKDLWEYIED

Substance	Km of ARIH1 for the CRL-substrate complex (single-encounter ubiquitylation, ARIH1 titrated, 10 s, Michaelis-Menten fit); peptide on the CRL: KR Lys 387 cycE [1] [µM]	Km of ARIH1 for the CRL-substrate complex (single-encounter ubiquitylation, ARIH1 titrated, 10 s, Michaelis-Menten fit); peptide on the CRL: KR Ser 387 cycE [1] [µM]	Km of ARIH1 for the CRL-substrate complex (single-encounter ubiquitylation, ARIH1 titrated, 10 s, Michaelis-Menten fit); peptide on the CRL: Lys only cycE [1] [µM]	Km of ARIH1 for the CRL-substrate complex (single-encounter ubiquitylation without cold competitor peptide, ARIH1 titrated, 10 s, Michaelis-Menten fit); peptide on the CRL: Arg47 Arg48 SelK [2] [µM]	Km of ARIH1 for the CRL-substrate complex (single-encounter ubiquitylation without cold competitor peptide, ARIH1 titrated, 10 s, Michaelis-Menten fit); peptide on the CRL: Lys47 Arg48 SelK [2] [µM]	Km of ARIH1 for the CRL-substrate complex (single-encounter ubiquitylation, ARIH1 titrated, 10 s, Michaelis-Menten fit); peptide on the CRL: NSer Hif1α [3] [µM]	Km of ARIH1 for the CRL-substrate complex (single-encounter ubiquitylation, ARIH1 titrated, 10 s, Michaelis-Menten fit); peptide on the CRL: WT Hif1α [3] [µM]
A397D/K398I/A399V ARIH1 (from UniProt Q9Y4X5 1-557) (enzyme)	1.12	1.19	0.544				
ARIH1 (from UniProt Q9Y4X5 1-557) (enzyme)				0.391	0.268	0.66	0.403
K342A/E343A ARIH1 (from UniProt Q9Y4X5 1-557) (enzyme)	1.56	0.461	1.22				
N358A ARIH1 (from UniProt Q9Y4X5 1-557) (enzyme)	0.874	1.04	0.98				
